Measured values published in US20230303695A1 (SHANGHAI XBH BIOTECHNOLOGY, published 2023).

Columns and labels:
[1] = target: T1, D1 domain of IGSF8 (recombinant protein) (human, UniProt Q969P0 28-149, limits assumed); experiment: SPR, Biacore T100
T1 construct: domain: D1 (Ig V-set domain); also called Ig V-set domain of IGSF8
T1 sequence (looked up): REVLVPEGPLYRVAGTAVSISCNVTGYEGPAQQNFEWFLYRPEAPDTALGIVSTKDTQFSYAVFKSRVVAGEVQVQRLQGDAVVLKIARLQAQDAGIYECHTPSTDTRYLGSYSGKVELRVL

[2] = target: T2, full-length IGSF8 (recombinant antigen of the SPR screen; IGSF8 target antigen of the phage panning) (human, UniProt Q969P0 28-579, limits assumed); experiment: SPR, Biacore T100
T2 sequence (looked up): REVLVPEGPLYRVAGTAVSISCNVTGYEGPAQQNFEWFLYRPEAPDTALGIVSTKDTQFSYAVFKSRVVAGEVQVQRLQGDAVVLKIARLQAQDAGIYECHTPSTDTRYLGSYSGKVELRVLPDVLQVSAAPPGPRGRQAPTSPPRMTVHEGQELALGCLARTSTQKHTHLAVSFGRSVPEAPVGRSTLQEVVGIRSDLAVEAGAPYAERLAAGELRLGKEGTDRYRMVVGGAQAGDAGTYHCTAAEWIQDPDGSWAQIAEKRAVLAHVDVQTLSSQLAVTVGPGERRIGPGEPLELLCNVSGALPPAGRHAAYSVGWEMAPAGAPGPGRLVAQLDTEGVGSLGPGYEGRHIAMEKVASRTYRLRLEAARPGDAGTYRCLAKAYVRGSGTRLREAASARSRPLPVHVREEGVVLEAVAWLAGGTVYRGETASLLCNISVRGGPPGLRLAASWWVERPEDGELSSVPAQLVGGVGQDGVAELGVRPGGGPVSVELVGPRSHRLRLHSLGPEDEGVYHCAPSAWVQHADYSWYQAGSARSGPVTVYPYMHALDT

[3] = target: T3, IGSF8 extracellular domain (ED) (Homo sapiens (Human), UniProt Q969P0 28-579); experiment: ELISA on IGSF8 extracellular domain
T3 construct: also called IGSF8 ECD
T3 sequence: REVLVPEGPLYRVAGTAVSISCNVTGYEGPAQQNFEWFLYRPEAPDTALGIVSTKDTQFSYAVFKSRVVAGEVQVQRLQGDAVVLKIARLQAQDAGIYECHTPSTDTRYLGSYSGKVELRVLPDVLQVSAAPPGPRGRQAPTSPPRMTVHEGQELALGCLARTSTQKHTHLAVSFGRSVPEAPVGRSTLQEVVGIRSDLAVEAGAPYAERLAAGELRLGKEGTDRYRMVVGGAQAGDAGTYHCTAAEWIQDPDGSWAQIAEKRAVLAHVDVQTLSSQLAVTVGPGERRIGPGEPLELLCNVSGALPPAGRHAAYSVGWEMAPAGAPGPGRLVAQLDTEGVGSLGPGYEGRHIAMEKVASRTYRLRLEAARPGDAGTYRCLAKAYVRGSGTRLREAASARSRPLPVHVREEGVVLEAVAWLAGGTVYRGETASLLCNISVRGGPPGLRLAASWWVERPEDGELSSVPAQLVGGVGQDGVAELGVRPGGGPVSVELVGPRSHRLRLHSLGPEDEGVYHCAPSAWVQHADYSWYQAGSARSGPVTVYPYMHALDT

[4] = target: T4, recombinant human IGSF8 extracellular domain tagged by a human Fc region (IGSF8-hFc) (human, UniProt Q969P0 28-579, biotin label in Examples 17, 18 and 28 (site not given)); experiment: FACS, biotin-labelled IGSF8-hFc on CT26 cells expressing the KIR, MFI normalized to Thy1.1
T4 construct: also called IGSF8-Fc fusion protein; IGSF8-hFc-biotin; not shown: human Fc region
T4 sequence: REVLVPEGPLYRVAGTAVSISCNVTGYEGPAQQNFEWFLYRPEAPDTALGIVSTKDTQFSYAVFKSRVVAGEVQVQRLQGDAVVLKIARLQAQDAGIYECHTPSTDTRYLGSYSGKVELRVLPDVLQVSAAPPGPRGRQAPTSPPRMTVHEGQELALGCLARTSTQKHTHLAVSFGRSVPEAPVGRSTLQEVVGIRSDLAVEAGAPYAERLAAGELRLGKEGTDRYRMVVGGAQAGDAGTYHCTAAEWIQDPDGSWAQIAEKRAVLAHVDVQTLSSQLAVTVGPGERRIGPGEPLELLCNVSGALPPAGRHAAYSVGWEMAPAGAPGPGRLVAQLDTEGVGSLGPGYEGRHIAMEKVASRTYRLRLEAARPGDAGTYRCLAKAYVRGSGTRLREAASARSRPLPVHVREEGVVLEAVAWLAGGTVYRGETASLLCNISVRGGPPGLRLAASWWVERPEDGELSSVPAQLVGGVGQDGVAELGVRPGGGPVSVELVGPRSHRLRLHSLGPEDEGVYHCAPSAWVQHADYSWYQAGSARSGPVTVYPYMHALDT
Experimental: For this experiment, different human KIR receptors (KIR2DL1, KIR2DL2, KIR2DL3, KIR2DL4, KIR2DL5A, KIR2DL5B, KIR3DL1, KIR3DL2, KIR3DL3) were first cloned into a proprietary lentiviral vector containing a thy1.1 tag (FIG. 17A). Then mouse CT26 cells, were transducted by these lentiviral constructs, and IGSF8 binding was tested with biotin-labelled recombinant IGSF8 hFc fusion protein. The mean fluorescence intensity (MFI) of IGSF8 binding to different CT26 cells were normalized by the expression of different KIRs on CT26 cells using an anti-thy1.1 mAb (Biolegend) via flow cytometry.
KLRC1 also contains a ITIM motif in its intracellular domain, and was known to be a inhibitory receptor of NK or CD8⁺ T cells as part of a heterodimer with KLRD1 on the cell surface. […] Specifically, 100,000 CT26 cells overexpressing the antigens (KIRs or KLRs) were washed with PBS buffer containing 2% FBS, and incubated with 100 μL IGSF8 recombinant proteins or antibodies (5 μg/mL) for 30 minutes on ice. Cells were then washed twice with wash buffer, and incubated with 100 μL of 1:100 anti-human Fc-PE antibody for 15 minutes on ice. Cells were washed twice with wash buffer and analyzed on a FACS analyzer (CytoFlex, Beckman). In these experiments, the mean fluorescence intensity (MFI) of IGSF8 binding to different CT26 cells were normalized by the expression of different KLRs on CT26 cells using an anti-thy1.1 mAb via flow cytometry.

[5] = target: T5, human IGSF8 expressed on the cell surface (human, UniProt Q969P0 28-613); experiment: FACS on CT26 cells with forced surface expression of human IGSF8
T5 construct: whole, on cells; also called human IGSF8 on CT26 cells; IGSF8 on MC38 cells
T5 sequence (looked up): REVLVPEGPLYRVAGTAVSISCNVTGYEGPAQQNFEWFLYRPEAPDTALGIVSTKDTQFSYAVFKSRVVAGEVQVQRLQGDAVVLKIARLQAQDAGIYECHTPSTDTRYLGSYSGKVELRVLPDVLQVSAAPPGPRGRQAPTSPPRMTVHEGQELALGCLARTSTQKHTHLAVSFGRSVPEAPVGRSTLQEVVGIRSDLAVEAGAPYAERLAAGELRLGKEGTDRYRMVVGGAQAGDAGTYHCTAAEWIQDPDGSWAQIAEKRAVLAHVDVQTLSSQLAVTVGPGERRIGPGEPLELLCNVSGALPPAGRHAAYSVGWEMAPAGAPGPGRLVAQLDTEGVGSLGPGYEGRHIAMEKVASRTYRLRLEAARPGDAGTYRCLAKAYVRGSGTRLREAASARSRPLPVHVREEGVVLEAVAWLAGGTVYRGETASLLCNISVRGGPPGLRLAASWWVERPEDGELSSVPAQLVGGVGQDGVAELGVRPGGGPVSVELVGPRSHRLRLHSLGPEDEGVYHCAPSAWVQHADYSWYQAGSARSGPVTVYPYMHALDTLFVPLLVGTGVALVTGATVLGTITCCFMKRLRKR
Experimental: For antibody binding assays based on cell-expressed antigens, 100,000 cells overexpressing the antigen (either the full-length IGSF8 or the D1 domain thereof) were washed with PBS buffer containing 2% FBS, and then incubated with 100 μL of antibodies or IgG of different concentrations for 30 minutes on ice. Cells were then washed twice with wash buffer, and incubated with 100 μL of 1:100 anti-human Fc-PE antibody for 15 minutes on ice. Cells were washed twice with wash buffer and analyzed on a FACS analyzer (CytoFlex, Beckman).

| Binder | Kd [1] | Kd [2] | binding result [3] | other results |
| --- | --- | --- | --- | --- |
| Antibody C35 (1B1) (antibody, V domains shown, also called mAb-1B1 (C35)) VH: EVQLLESGGGLVQPGGSLRLSCAVSGFTFNSFAMSWVRQAPGKGLEWVSAISGSGGGTYYADSVKGRFTISRDNSKNTLYLQMNSLRAEDTAVYYCAREGWEVRTPGYFDYWGQGTLVTVSS VL: DVVMTQSPSSLSASVGDRVTITCRASHRIFSYLTWYHQKPGKAPNLLISGASSLGAGVPSRFSGSGSGTDFTLTISSLQPEDFGTYYCQQSFSDPYTFGQGTKLEIKR | < 50 nM | 2.06 nM |  |  |
| Antibody C4 (antibody, V domains shown, also called anti-IGSF8 C4) VH: QVQLLQSGGGLVQPGGSLRLSCAASGFTFSRYRMGWVRQAPGKGLEWVSSIARSGGRTYYADSVKGRFTISRDNSKNTLYLQMNSLRAEDTAVYYCARGVRYCSSPSCSRGPRYAMDVWGKGTTVTVSS VL: EIVMTQSPSSVSASVGDRVTITCRASQGISSWLAWYQQKPGKAPKLLIYAASSLQSGVPSRFSGSGSGTDFTLTISSLQPEDFATYYCQQANSFPITFGQGTRLEIKR |  |  | binds |  |
| Antibody C9 (antibody, V domains shown, also called anti-IGSF8 C9) VH: EVQLVESGGGLVQPGGSLRLSCAASGFTFSRYDMSWVRQAPGKGLEWVSRIRYSGGRTGYADSVKGRFTISRDNSKNTLYLQMNSLRAEDTAVYYCARGVRYCSSPSCSRGPRYAMDVWGKGTTVTVSS VL: DVVMTQSPATLSLSPGEGATLSCRASQSVRGYLAWYQQKPGQAPRLLIYDTFKRATGIPARFSGSGSGADFTLTISSLEPEDSAVYYCQQYFASPWTFGQGTKVEIKR |  |  | binds |  |
| Antibody C8 (antibody, V domains shown, also called anti-IGSF8 C8) VH: not shown VL: DIQMTQSPSSVSASVGDRVTITCRASQGISSRLAWYQQKPGKAPKLLIYAASSLQSGVPSRFSGSGSGTDFTLTISSLQPEDFATYYCQQRHSYPITFGQGTRLEIKR |  |  | binds |  |
| KIR2DL5A expressed on CT26 cells (receptor, human, UniProt Q8N109 22-375, looked up, whole, on cells) HEGGQDKPLLSAWPSAVVPRGGHVTLLCRSRLGFTIFSLYKEDGVPVPELYNKIFWKSILMGPVTPAHAGTYRCRGSHPRSPIEWSAPSNPLVIVVTGLFGKPSLSAQPGPTVRTGENVTLSCSSRSSFDMYHLSREGRAHEPRLPAVPSVNGTFQADFPLGPATHGGTYTCFGSLHDSPYEWSDPSDPLLVSVTGNSSSSSSSPTEPSSKTGIRRHLHILIGTSVAIILFIILFFFLLHCCCSNKKNAAVMDQEPAGDRTVNREDSDDQDPQEVTYAQLDHCVFTQTKITSPSQRPKTPPTDTTMYMELPNAKPRSLSPAHKHHSQALRGSSRETTALSQNRVASSHVPAAGI |  |  |  | binding result [4]: no binding |
| Antibody C30 (B34) (antibody, V domains shown, Expressed in CHO cells; also called mAb-B34 (C30)) VH: EVQLLESGGGLVQPGGSLRLSCAASGFTFSSYAMSWVRQAPGKGLEWVSGITGSGGSTYYADSVKGRFTISRDNSKNTLYLQMNSLRAEDTAVYYCARGRQVDKWGQGTLVTVSS VL: DIMLTQSPSSLSASVGDRVTITCRASQSIHNYLNWIQQTPGKAPKLLVFAASTLQRGVPPRYSGRGSGTEFTLTISSLQPEDFATYYCQQSYTTPLTFGGGTKVEIRR | < 50 nM | 13.8 nM |  | EC50 [5]: 7.88 nM |
